In the Immune Epitope Database (IEDB) one finds Kd and IC50 data, which are given here for six sequences.

One assay concerns the target HLA-B*15:17. Description: IEDB peptide-MHC binding, purified MHC/competitive/fluorescence; filed as Kd, often an IC50 or EC50 that approximates it; ≥ and ≤ were set here for values at or beyond the usual limits of such assays.
Another assay deals with HLA-A*26:02. The description is as above. Conditions: source organism: Human immunodeficiency virus 1.
The target in the next assay is HLA-A*02:06. The description is as above. Conditions: source organism: Human immunodeficiency virus 1.
The target of a further assay is HLA-A*02:03. The description is as above.
The target in another assay is HLA-A*02:01. Described as above.
In another assay the target is HLA-B*51:01. The assay is described as above.
The next assay has as its target HLA-B*46:01. The description is as above.
The target of a further assay is HLA-B*45:06. The assay is described as above. Conditions: source organism: Vibrio vulnificus CMCP6.
Another assay concerns the target HLA-A*29:02. Described as above.
The target of a further assay is HLA-A*02:12. The assay is described as above.
Another assay concerns the target HLA-A*02:16. The description is as above.
For a further assay, the target named is HLA-B*15:01. Described as above.
In the next assay the target is HLA-A*23:01. Described as above.
The next assay concerns the target HLA-A*68:02. The assay is described as above. Conditions: source organism: Vibrio vulnificus CMCP6.
The target in the next assay is HLA-B*15:42. The assay is described as above. Conditions: source organism: Vibrio vulnificus CMCP6.
Another assay has as its target HLA-B*83:01. The assay is described as above. Conditions: source organism: Vibrio vulnificus CMCP6.
The next assay has as its target HLA-A*26:01. The assay is described as above.
Another assay deals with HLA-A*69:01. Described as above.
The next assay concerns the target HLA-B*18:01. The description is as above.
Assay [1] has as its target HLA-A*03:01. Described as above.
In another assay the target is HLA-B*57:01. The assay is described as above.
The next assay addresses HLA-B*27:03. Described as above.
Another assay has as its target HLA-A*02:11. Described as above.
Another assay addresses HLA-A*02:19. The description is as above.
A further assay addresses HLA-A*24:03. The assay is described as above.
For a further assay, the target named is HLA-B*39:01. The assay is described as above.
Another assay addresses HLA-A*01:01. As to the kind of experiment: IEDB peptide-MHC binding, purified MHC/competitive/fluorescence; ≥ and ≤ were set here for values at or beyond the usual limits of such assays. Conditions: source organism: Zaire ebolavirus.
The target of another assay is HLA-A*24:02. The description is as above. As to conditions: source organism: Zaire ebolavirus.
Assay [2] has as its target HLA-A*03:01. Described as above. As to conditions: source organism: Zaire ebolavirus.
The target in a further assay is HLA-A*11:01. Described as above. Conditions: source organism: Zaire ebolavirus.
The next assay deals with HLA-C*05:01. As to the kind of experiment: IEDB peptide-MHC binding, purified MHC/direct/fluorescence; filed as Kd, often an IC50 or EC50 that approximates it; ≥ and ≤ were set here for values at or beyond the usual limits of such assays.
For another assay, the target named is HLA-C*15:02. The description is as above. Conditions: source organism: Yersinia pestis Nepal516.
For a further assay, the target named is HLA-C*14:02. The assay is described as above. As to conditions: source organism: Yersinia pestis Nepal516.
In another assay the target is HLA-B*07:02. Description: IEDB peptide-MHC binding, purified MHC/competitive/fluorescence; filed as Kd, often an IC50 or EC50 that approximates it; ≥ and ≤ were set here for values at or beyond the usual limits of such assays. As to conditions: source organism: Yersinia pestis Nepal516.
Setting [3] is: source organism: Human immunodeficiency virus 1.
[4] abbreviates: source organism: Vibrio vulnificus CMCP6.
Where [5] appears, read: source organism: Salmonella enterica subsp. enterica serovar Typhi.
[6] abbreviates: source organism: Yersinia pestis Nepal516.

For orientation: Kd means a measure of binding affinity in units of concentration. Higher therefore signals weaker binding. On to LFNTIATLY, for which the equilibrium dissociation constant (Kd) is 2.51 µM with HLA-B*15:17 (setting [3]); at least 20 µM with HLA-A*26:02; 1.29 µM with HLA-A*02:06; at least 20 µM with HLA-A*02:03 (setting [3]); 1.07 µM in the assay with HLA-A*02:01 (setting [3]).
In the case of LEMNDAPTA, the Kd is at least 20 µM with HLA-B*15:17 (setting [4]); at least 20 µM with HLA-B*51:01 (setting [4]); at least 20 µM with HLA-B*46:01 (setting [4]); at least 5 µM with HLA-B*45:06; at least 20 µM in the assay with HLA-A*29:02 (setting [4]); at least 20 µM in the assay with HLA-A*02:12 (setting [4]). Also, the Kd is at least 20 µM in the assay with HLA-A*02:16 (setting [4]); at least 20 µM in the assay with HLA-B*15:01 (setting [4]); at least 20 µM with HLA-A*02:03 (setting [4]); at least 20 µM in the assay with HLA-A*23:01 (setting [4]); at least 20 µM in the assay with HLA-A*68:02; at least 5 µM with HLA-B*15:42. Further, the Kd with HLA-B*83:01 is at least 5 µM; with HLA-A*26:01 (setting [4]), at least 20 µM; in the assay with HLA-A*02:01 (setting [4]), at least 20 µM; in the assay with HLA-A*69:01 (setting [4]), at least 20 µM; in the assay with HLA-B*18:01 (setting [4]), 0.24 µM; with HLA-A*03:01 [1] (setting [4]), at least 20 µM. Also, the Kd with HLA-B*57:01 (setting [4]), with HLA-B*27:03 (setting [4]), with HLA-A*02:11 (setting [4]), with HLA-A*02:19 (setting [4]), with HLA-A*24:03 (setting [4]) and with HLA-B*39:01 (setting [4]) was at least 20 µM in each case.
The IC50 is the midpoint of a concentration-inhibition curve. Low readings indicate greater potency in that assay, high ones weaker potency in that assay. For ATDVPSATK, the IC50 with HLA-A*01:01 is 12 µM; with HLA-A*24:02 it was 64.6 µM; in the assay with HLA-A*03:01 [2], 28.7 µM; with HLA-A*11:01, 2.14 µM.
For the sequence NTDEIPELI, the Kd is 0.114 µM with HLA-C*05:01 (source organism: Salmonella enterica subsp. enterica serovar Typhi str. CT18); at least 20 µM with HLA-B*15:17 (setting [5]); at least 20 µM with HLA-B*51:01 (setting [5]); at least 20 µM with HLA-B*46:01 (setting [5]); at least 20 µM in the assay with HLA-A*29:02 (setting [5]); at least 20 µM with HLA-A*02:12 (setting [5]). Besides, the Kd in the assay with HLA-A*02:16 (setting [5]), with HLA-B*15:01 (setting [5]), with HLA-A*02:03 (setting [5]), with HLA-A*23:01 (setting [5]), with HLA-A*26:01 (setting [5]) and with HLA-A*02:01 (setting [5]) was at least 20 µM throughout. In addition, the Kd with HLA-B*18:01 (setting [5]) was at least 20 µM; in the assay with HLA-A*03:01 [1] (setting [5]), at least 20 µM; with HLA-B*57:01 (setting [5]) it was at least 20 µM; with HLA-B*27:03 (setting [5]) it was at least 20 µM; in the assay with HLA-A*02:11 (setting [5]), 0.0031 µM; with HLA-A*02:19 (setting [5]) it was at least 20 µM. Moreover, the Kd in the assay with HLA-A*24:03 (setting [5]) and with HLA-B*39:01 (setting [5]) was at least 20 µM in each case.
Consider VVPYEPPEV, for which the Kd with HLA-A*02:12 (source organism: Homo sapiens) was 0.161 µM; with HLA-A*02:03 (source organism: Homo sapiens), 1.12 µM; with HLA-A*02:01 (source organism: Homo sapiens), 0.0265 µM; in the assay with HLA-A*69:01 (source organism: Homo sapiens) it was at least 20 µM; with HLA-A*02:11 (source organism: Homo sapiens), 0.0093 µM.
As to RAMKALSSI, the Kd is at least 20 µM with HLA-C*05:01 (setting [6]); 0.017 µM with HLA-C*15:02; 0.413 µM with HLA-C*14:02; 0.253 µM with HLA-B*51:01 (setting [6]); 0.0126 µM with HLA-B*07:02.
